Test results published in publication PMC10799922.

Experiments:
[1] = target: 3C8 iAb_(aff1) Fab (anti-OX40 clone 3C8 engrafted with the iAb_(aff1) residue set, expressed as a monomeric Fab)
[2] = target: 3C8 iAb_(aff1) Fab (anti-OX40 clone 3C8 engrafted with the iAb_(aff1) residue set, expressed as a monomeric Fab); experiment: AUC; sedimentation velocity; 3C8 iAb_(aff1) Fab at 0.6, 0.2 and 0.07 mg/ml in 25 mM histidine acetate pH 5.5, 150 mM NaCl; 20 °C, 50,000 RPM; global fit to a monomer-dimer equilibrium model (dimer to monomers)

B1: 3C8 iAb_(aff1) Fab (anti-OX40 clone 3C8 engrafted with the iAb_(aff1) residue set, expressed as a monomeric Fab) (Fab, V domains shown)
VH: EVQLVQSGAEVKKPGATVVVLCKASGYAFTNYLIEWVRQAPGQGLEWIGVINPGSGDTYYSEKFKGRVTLFADTSTSQAILILTSLRSEDTAVYYCARDRLDYWGQGTLVTVSS
VL: DIQMTQSPSSLSASVGDRVTITCHASQDISSYIVWYQQKPGKSFKGLIYHGTNLESGVPSRFSGSGSGTDFTLTISSLQPEDFATYYCVHYAQFPYTFGQGTKVEIK
**Q.** With B1 as the binder, how does the OX40 agonism of the monomeric Fab in Jurkat OX40 NF-kB luciferase reporter cells; EC50 against the full-length iAb (aff1) IgG [1] read?
**A.** The OX40 agonism of the monomeric Fab in Jurkat OX40 NF-kB luciferase reporter cells; EC50 against the full-length iAb (aff1) IgG was 100 fold.

**Q.** And the Kd [2]?
**A.** The Kd was 6.8 µM.

**Q.** And the stoichiometry N [2]?
**A.** Its stoichiometry N is 2.
